Experimental data reported in the supplement of paper PMC10567573.

B1: NP_015628.1 (parent)
chain: EQRNSRWNTVLRAVKAKTHHLEP
B2: MLH1 (parent)
chain: YNIATRRKALKNPSEEYGKILEVV

Variants of: B1
Test: protein stability index of a GFP-peptide fusion (GPS, HEK-293T) (PSI 1-6); higher = more stable
Settings: c terminus: native

Protein stability index of substitutions, site by site:
Q2: P 3.06; F 3.02; L 2.84; T 2.38; V 2.76
V14: C 2.73; T 2.97; L 3.05; R 2.96; F 2.87; N 3.1
T18: F 3.33
E1: I 2.79; H 2.91; S 2.4; V 2.65
P23: H 4.88; D 4.92; K 5.17; T 4.13; M 4.09
N8: G 2.49; R 2.53; F 2.8; T 2.16; I 2.6; M 2.15
R6: M 2.72; N 2.67; C 2.45; Y 2.94; L 2.97
L11: P 5.12; H 4.49; V 2.5; D 4.52; M 3.19
S5: V 2.43; A 2.67; E 2.91; F 2.61
V10: M 2.89; R 2.77; S 3.63; T 3.15; K 3.15
T9: Q 3; M 3.04
E22: Y 3.91; T 3.23; G 3.09; F 3.55; N 4.48; S 3.09; L 3.02; K 4.85
A16: W 2.92; D 2.82; R 2.77; T 2.78; E 2.37
N4: G 3.71; K 2.67; H 2.48; I 2.94; Q 3.1; W 2.4
W7: D 5.12; H 5.21; N 4.83; G 5.71
R12: W 2.67; K 2.97
A13: W 2.93; S 3; I 2.66; L 2.69
R3: T 2.9; H 2.99; D 3.97; V 2.99; Y 3.7; G 3.58; K 2.79; L 3.23
H19: F 3.66; N 3.56; R 2.96; Y 3.07
K15: I 3.1; L 3.07; V 3.11; N 3.17; H 3.22; Y 3.25
K17: F 2.75; I 2.61; Q 2.67; V 2.79; R 3.33; M 2.91
H20: D 3.09; P 3.89
L21: P 4.27; W 4.04; D 4.04; T 4.26; Q 4.55; N 4.59

Variants of: B2
Test: as above
Settings: c terminus: a fixed tail appended

Protein stability index: each site, then its substitutions
E22: T 2.19; A 2.59; K 2.18; L 2.54; F 2.32; Q 2.42; M 2.09; D 3.33; H 2.43; C 1.75; Y 2.27; G 2.42; V 3.63; P 2.49
V24: P 4.07; D 3.66; K 3.77; W 1.96; G 3.32; N 3.64; H 3.11; E 3.98; C 3.37; Q 3.52; L 2.45; A 3.79; F 2.98
L10: I 3.22; M 2.86; H 3; F 3.02; P 3.23; E 3.53; A 3.09; R 3.13; K 3.31; G 2.99; V 3.07; T 3.14; C 2.84
V23: Y 2.5; I 2.5; G 3.62; T 2.97; H 3.69; K 3.36; F 2.1; E 4.21; Q 3.34; D 3.65; N 3.43; R 3.22; C 3.03; P 3.41; S 3.66; A 3.69
I20: Y 3.18; A 3.46; R 3.6; H 3.59; V 4.05; Q 3.8; C 3.89; G 3.52; T 3.62; D 4.34; M 3.13; N 3.54; F 2.39; W 2.82; E 3.54; S 4.11; P 3.3
N12: P 3.11; D 3.32; F 1.97; E 3.35; S 2.76; R 3.3; G 2.71; Y 2.53; W 1.94; A 2.55; V 1.98; H 2.74
G18: T 2.19; E 3.29; N 3.13; Y 2.34; K 2.97; W 1.46; P 3.03; Q 2.7; A 2.21; D 3.15; I 2.16; V 1.95; L 2.15; R 2.4; F 2.16; C 2.5
E16: S 2.71; Y 1.88; M 2.15; K 2.1; R 2.5; A 2.37; F 1.62; G 2.89; V 2.49; D 2.75; P 2.17; C 1.85; L 1.99
L21: T 3.91; W 2.34; C 4.26; V 3.34; S 3.76; I 2.17; Q 3.8; H 3.61; D 4.42; G 3.52; N 4.33; A 3.69; Y 2.46; E 4.02
E15: R 2.46; Q 2.15; G 1.76; I 2.46; M 2.54; V 1.85; A 2.1; C 2.17; K 2.06; H 2.43; P 2.21; S 2.49; W 1.78; Y 2; L 1.99; F 2.29; N 2.43; D 2.7
S14: F 2.01; Q 2.79; W 1.43; N 2.71; A 2.98; E 3.56; R 2.94; D 2.98; L 1.78; T 2.85
A9: S 2.93; L 2.17; W 2.75; E 2.99; Q 2.55; Y 2.09; D 3.2; K 2.71; V 2.55
Y17: E 4.04; R 3.57; A 3.52; K 3.37; N 4.08; C 3.05; I 2.95; S 3.75; T 3.72; Q 3.97; L 2.63; H 3.53; P 4.17; M 3.11; V 3.16; D 4.3; W 2.66
K11: S 2.48; M 2.85; E 3.48; N 2.69; L 2.43; F 1.95; I 2.04; V 2.53; W 2.19
P13: F 1.96; C 3.26; Y 2.59; K 3.19; N 2.99; T 2.89; S 3.05; I 2.15; R 2.78; M 2.27; W 2.66; H 2.94
K8: V 2.2; E 3.25; L 1.99; C 1.87; D 3.09; W 1.94; I 2; F 2.27; H 2.48; G 3.37; R 2.85
K19: H 2.42; M 2.51; V 1.74; C 1.8; N 3.29; L 1.63; A 2.5; E 3.37; I 1.8; W 1.65
R7: W 1.78
